# The domain aggregation screens of Martell et al. (2025)
# Assay: soluble fraction after stress (log2 fold change); higher = more stays soluble; pooled small domains, quantitative proteomics
# Settings: stress: 50 degC
# Procedure, shortened: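 Pooled custom libraries of small protein domains were each held under stress at 50°C. The read-out, high-throughput quantitative proteomics, tracked how much of each protein stayed soluble. This is reported as a base-two log fold change used to indicate aggregation propensity. Higher values mean more protein remains in solution.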
row,Sequence,soluble fraction (log2)
1,HMEWGEADFVRLDEALATLRTLSPRQAEVVDLRFFSELSLEETAATLGLSLATVKRDWSVARLYLQRALS,0.0743
2,HMKKHAPSLMRQIRRELKEGKSPESLLSKAKLISDSYYRSLSFYLLIPYLSPNSKQFQEAISLAGKDID,0.255
3,HMEDYYKILGVSKDASIDDIKKSYRKLSLQNHPDRNKSPQASENFAKINSAYEVLSDQRKKRQYDMQQSM,0.0897
4,HMNEWVSVEERLPTDERPVLAFIGYADTMNGFITTSYYFRFDPDPHWLGEGLIPVGLKTLFWMPLPAP,-0.0149
5,HMISKQQRQALILDIIQKQSITSQEALLTELQRHHVMTTQTTVSRDIRALGIVRIKDVNGELSYQQLQ,-2.5
6,HMWPQIAGFADRFGLSDTERRIVTLMSHGRSRKIIASTLGYSQNTIRNYTRNIYAKAGVHSKQELLDLLDP,-2.13
7,HMRPTAWEQVSRHIDQHGSIGNTEVRKAMETENVLAASKQIKKWLEQGLLIILNPTAGTRARRYSKPNM,-0.287
8,HMYIDLHEIWKSLTDEEQTVVKLLETEPAHVDTLIENSQIPASRILATLTLLEVRGIVKRLPGRMFSLAD,-1.45
9,HMDVQPHIYLRKLDQFWPADLHSLILYTLDGRRLWSADSGNIPALPHRASSLVILEATWDNGQRTRRKQFL,-1.63
10,HMTEIILTARSGRHAVRHRLEGLGYTLTPEELERVHQRFLAVADAKKEVFDEDLHALMADERGT,0.0349
11,HMHSGFHSAILDVDRAVKEGKTLYEALNKYPYIFDETFRSLVRAGEASGELPSILSKLALYLEEQSK,-1.16
12,HMTYSAWIEKAYSELEKKGITEAELSDALDKRGINLEDLKLMGPDEAVKYQSEVEGVVLELSKSKE,-0.0868
13,HMRALPFSFANRHGVLIREISDGVAHAVYRIGSSPLGLAEARRFVGMPLMLTPVAREAFDSLLQQTYEQG,-1.6
14,HMDYHTIQTGDKGDEVLRLQQALAEYGYYEGDLDGRFGQQTRRAVERFQYSHGLTADGIAGRNTLSVLYD,-0.101
15,HMEMELNHVARRAGRLSGFLKGELRLSTGLMNRLKWSNAILVNGKPARTNAQVEPGDRITVILD,-0.976
16,HMKTGNIITVSLVWKGKYYMIRMFFPSASRPTRSDVQNEIEKVYPGSKLSTFSVSDYEPGQPLLQV,-1.16
17,HMNIGEKIKKIRTQQNKSTYELADIINKNGFKISQSAISKIENGRKKIDIETLEEIAKALDIEVDLLIT,-0.14
18,HMQDNPELVARIEKAAARGTSSMSDWERSFMGSLLDSAKKWGRLTAKQHEVFQRIEKKTDPAHQAAVS,0.0476
19,HMAPSPEGAAILRESVESVARDQVDRVALTMTARGYTTAEIAAALMVDRSTISRRLYAMRDRYHAQQDNAQ,-0.37
20,HMASQEESVATYIQDYYRNPKTGESMVSDDMVEEFYKTHPEWEDQADGSKEGMEAVLDNFNEFFEINYG,0.0827
21,HMKSILSEIPGIGPKKRKSLMMQFGSVKNISEASLKDLSSTKGINSNLSKEIFNFFSVEKNN,-0.0118
22,HMTKSSAYLSAEKLINKKQYSDAIVKLNDALVTDSKNADIYNYLGFSHRKLGKMEDAAFFYNKALE,0.219
23,HMSIQDLMNSKDLSGFKVEMLSNEDIVKYKSMLQSSGFSESQAEQLALQRGLPTSELIKLRTRISDVAVT,0.0344
24,HMNKFKVNERVRVIATGEIGIVKGREILPVEGSKRVNIEYLVKVGNGFSNWKAFSKKELEPVR,-1.18
25,HMHGEAEFLDATAVVMEKLNPGGLVKIKGEIWQAVSKDGHTIQEGEKVRVFERQGITLLVGHF,-0.171
26,HMSMFAQQLKDLRKKIPGLTQTDMAKKLGIAKTTYASYEQGKRTPDIETQNKIADFFNVSLDYLHG,-0.0838

row,Sequence,soluble fraction (log2)
1,HMAKPVNISAEPYHYDPTRFRVTFELPRLSDQPRKRIRKVAPAGLDREQALAWAKRLEREVLHELLR,-0.494
2,HMTKIKAIFFDIDGTIRSFKTKTIPENTANTLKKLKEQGIKIFIATGRAPFHTTFLNDLLDFKFDGYITIN,-0.282
3,HMLGNIERALEMLQEVAATMDPVDIRLLLSMAQVESVRGNTEAAVKLIDEALVIDPGNERIEQIRLRVL,-0.558
4,HMREVGVPNLRGLTAEEAQIVLSNAGLNLRTEPIRRVHETITVGRIAEQDPMPDLTIRSQRSVTTWLSSGP,0.317
5,HMNLLQAHLLRLESAALLAEVREVDRQLSRWLHPLTPQSDVAIIDERNWEAAVARLTELGVHIEEGRW,-2.92
6,HMSKTEEIAYTTFVKYLENKDIEEVYLGNNAKIKVILKDGREMITDNPRTADFKKDLLLHDIKVVEKT,0.219
7,HMQISDDSELIKIVDNILANSQKQIDDYHNGKTNLFGFFVGQVMKETKGKANPVKVNEILKDKL,0.00641
8,HMYLHSEFSPVTGQELHMKYDDSSTEEDPVMLVEGKDIQGNDFVKKIHLNDVDPENATPAEMTALRVHL,-0.541
9,HMEIDFDKINSIFNDANKLYEEGDYFEANNLYKNIVSSNIISKDLYYNLGLSYAKIGSNGYAILWYERALN,-0.189
10,HMKEEVSVPDIKGMTYEEAEAKLAKYDLEIEKGETVKASEQYEEGQISSQEPEAGSKVKEGSTIVVDVVE,0.316
11,HMNMKVGPVPANVVPANIKAHVSNNYSKYQIVQMMQNDKGYQVKLSNGTDLYYDKDGNILKTS,0.196
12,HMSTTDGIERFLASGAVKGIGRTMAARIVEHFGSRTLTVMESEPERLTEVAGIGRKKAESIAASYAELS,-0.156
13,HMTDVRFIDIPVTEHHPWNGMKVRDLQLPPGTLLVFLSHPGEKNTVPHGETVLRSGDVLVLGATAYTGQ,-0.0558
14,HMEVLPLHQVKLKYAEADTILIALKSAQSMLSPRGQLLADNRSQQIFVYDDEAHTATLIEAIKHLDQPL,-0.0429
15,HMQADEENPKYPVITDGVIQLEVLESIDKTEEWLVERLAKDGYNNVSEIFIAEYENGNLSIVT,0.148
16,HMELEQLKSQLTGFLKANREQIFTAQNLADGLRMTDSQGYKQVVNALNASVRDGDVIDIKNGYQYNKN,0.0729
17,HMPGRKTTFEERLSIIEDLIKHDVNYSWAVDKYHVSYQQVYGWYQKYRKSGNDPQSLRDRRGK,-2.7
18,HMYALGIPVSQYRRTTQVLGHESSYPIAYEDEKQDDDFYLFKFPNIDEYDFKKIVILLKQNGITT,-1.61
19,HMSIQELMNSKDLSSFKVEMLSDEDIAKYKGLLQNSGLTEAQAEQMALQRGLPSSELLKLKARLSGI,0.128
20,HMELEAFPNPTDMFLSFTTKEKTPLAIYDINGKQVLYVEQITSSSKINVSKLSEGVYFAKTNQGTVKWVK,-1.67
21,HMFLTPLEETRLAIEEVVIAKNIAIDLFPRESAIRKQQHELIYHYHLKGLTVGTEKNKRLRIFPRGY,-0.000251
22,HMDLAPLQTVDIAINYAKAAELAAILKSSEGGILSDRGGVTVDERTNTLLIRDTLESIDEARKTI,0.122
23,HMNKPTFNIFNNRLTFPFKGDITIYSLDGKRVFSAYNESSVNLSFLNRGSYISEFNNSRSVLIL,-1.39
24,HMKTLGMDKGVNIALNDAGLRAEDVSNLSAHYDTEDGVPVYEIKFTAGGFSYEYQIKASDGTIIEADRDAA,-0.108
25,HMDTSAHEVLSAIRSIIEDEDKRHPLSDEAITSRLSQQGYDIARRTVAKYRERLGLPVARLRRE,-0.0213
26,HMQTKSDMVYHRVREDIVNGVFAPGERLLISAVAKQYGVSEIPVREAFRVLSQEGFLKTRPNSGFVVS,0.0933

row,Sequence,soluble fraction (log2)
1,HMQDPRITRTRGLILQAFDALLVEKGFHALSVQAIAGRAGINRATFYAHFADKYALLDTSIQE,0.268
2,HMEGDKEIPNVIGKSINDAKKILEQAGLKLGEVKKVNDSSVAKNVVLSTNPNAGTKVSAGDAVSITVAEG,0.0251
3,HMSINISFEPADHLGKDVIFIRFPYDNEWIQRVRKLKGAKWSQSQRAWHVPDTEHYRTLFQLPQKI,-2.6
4,HMSEIVEEQNTKLKQAVSKLSKRQQEVLYLKFEEGLDYEQISKIMDLKYQSVRNLVSTAIIKIKEH,-2.16
5,HMGFLTKTQRLEILLHLKDEPYYNVEKLKELIKNRYGIVYQSSQSYYDLLKEAGLSWHQTQA,-0.64
6,HMEALSAREIEILQALETGASNRELAKMLFISEATVKTHLVHIYQKLGVGTRTAAITEARERRV,-1.64
7,HMHKPLRILVYEELRMLIMTGQIKPGTRMMEIDLAESMGVSRTPVREAIRQLEKDNLVTIEPRRGAYVSD,-2.45
8,HMSGTMYATAEVNVRSTYSSDGTIYGTLSKGTAVEITGTTDNGWVRVKYNGTTAYVYADYLSWKAP,-0.671
9,HMDQHPYGEDSFRGDNPPAGFDIKGNEDSMKFHEPSSPWYGRTIAEVWFRSAAAAEAAGFVNAV,-0.113
10,HMSGGIVRLAVKPWGEVFVDGASRGITPPLKQLTLDAGVHRIEIRNPAGPSWTKDVDVVAGQPTTVSHRF,0.0289
11,HMQDTVKNVFGAFTIFTDKPFAIGDTINVNGLEGTVVDVGMRSTQILGYDRRITSYPNYKITDSSIVNISS,-0.0701
12,HMTRTEYMAQLEKYLKKLPHKEFQEAITFFNEYFDEAGPEKETAIMEELGSPKEAASELITNILNRHI,-0.149
13,HMKKTTEFAVTPEFQQRLEASPELKAAFQALTPGRQRAHLLFFAAPKQAQTRQARIEKSLPQIMAGKGLN,-0.184
14,HMKMLPAEVLTHPAVVALIERGAPTGSITPEEVRQASEDAAVEPRHLKALLAHLSALGISVQIP,-0.217
15,HMWPTPRTWSALMNELNLYKENHGYANIVDIPSEKIRRMADGIIGEDMAVRYVAFLQSHASS,-1.6
16,HMVEVPNVSNLTLEQAENKLIQQGLQVKLEGQGEKVVAQIPQPGAVVNKKSTVILF,0.129
17,HMSIYDAPIEDLKFSTRIFNSLKRADIHTVADLIAHSRDDLMKVRNLGATSLDELIEKLGTHGLQLADP,-0.254
18,HMTKRKNTEFRQQQIIEAAAKLIFKYGSEHLTVKRIAAQVGISEAAIYRHFTSKKSILSFLLSHIEE,-0.423
19,HMTLSVRQRMSQIINKIDVSNFTDFTKLFDINEGRLGVAVTFLAILELLKDTMIDVIQNEEFAPLHIKVSS,-0.177
20,HMNNDFIVKSTDSHKVNLRSQPDTHADIIKRLDDHTIVEKLKTVRKNWYLVQLKDTTTQGYVHKSQLERV,-0.0413
21,HMHPQISVEGVLPLKEAVEFVEREIISHAYSRYRATREVARHLGIDPSTVLRKAAKYGITVEPGKN,-0.658
22,HMQWGKVRRLPSGRYQASYVHKGTRYTAPETYTVQGRAHGWIESERRLIVTDTWTPPDTRPS,-1.78
23,HMNKFRVGDEVEIVKLDKTIQHFGGEEVLSPVGTKTYITYVDVTGKEIEIDKDIYSYHADDLTLV,0.147
24,HMGREVVVPNLAGIEKEVALDLLKKNRLGGMITGTRFSSDFPAGQVIQQMPEAGSRVKVGKQVKLVLSEG,0.323
